Assay results: patent US10053447B2, “Fluorescent compounds” (Pierce Biotechnology, Inc, priority 2010, dated 2018)

Legend:
[1] = Storage stability at 50° C. under argon; format: physicochemical
Experimental: The inventive compounds were evaluated for stability. All compounds were packed under argon in plastic vials. The vials sere sealed with a drying pad in an aluminium coated pouch, and then stored at 50° C. for seven days. The results of the stability study for selected compounds are shown below:
Purity was determined based on ester activity.
The inventive compounds were evaluated for stability compared to commercial dyes. All compounds were packed under argon as 1 mg portions in plastic vials. The vials sere sealed with a drying pad in an aluminium coated pouch, and then stored at 50° C. for 14 days. The results of the stability study for selected compounds are shown below:
The inventive compound 755 Compound 1 (isomer 1)-NHS was evaluated for stability. The compound was packed under argon in plastic vials. The vials sere sealed with a drying pad in an aluminium coated pouch, and then stored at 50° C. for 14 days. Purity was determined by HPLC before and after storage.

streptavidin (SA) = streptavidin (SA) (Streptomyces avidinii, UniProt P22629); assay: Labeling efficiency (degree of labeling, mole dye to mole protein ratio) of streptavidin; details: for Compound/Protein SA in PBS purified by PDRR / Compound/Protein SA in PBS purified by gel filtration: PBS pH 7.2; for Compound/Protein SA in PBS purified by PDRR / Compound/Protein SA in PBS purified by gel filtration / Compound/Protein SA in borate purified by gel PDRR / Compound/Protein SA in borate purified by gel filtration: molar excess given in the label; for Compound/Protein SA in borate purified by gel PDRR / Compound/Protein SA in borate purified by gel filtration: borate buffer pH 8.5
Experimental: Inventive and commercial compounds, each as the NHS ester, were conjugated to goat anti-mouse (GAM), goat anti-rabbit (GAR) antibodies, and streptavidin (SA). GAM, GAR, and SA, at 10 mg/ml in phosphate buffered saline (PBS), were dialyzed against 50 mM borate buffer, pH 8.5. The compounds were reconstituted in dimethylformamide (DMF) at 10 mg/ml and combined at 2×, 4×, 5×, 7.5×, or 10× molar excess with GAM, GAR, or SA for 2 h at room temperature to label the antibodies or SA.
The labeled compounds, also termed dyes or labels, were subjected to PDDR to remove the unlabeled (free) compound; 100 μl of the packed resin was used per mg of protein purified. The purified antibody-labeled dyes were then diluted 1:50 in PBS and scanned for absorbance from 700 nm to 230 nm to determine the protein concentration, and to determine the mole dye to mole protein ratio. Each conjugate was diluted 1:10 in 50% glycerol and heated in the presence of 10 mM dithiothreitol (DTT) for 5 min at 95° C., then separated by electrophoresis on polyacrylamide gels in the presence of sodium dodecyl sulfate (SDS-PAGE). The gels were scanned using the Typhoon 9400 Imager to verify removal of the unconjugated compound. Labeling efficiency was compared, with results showing degree of labeling below.
Compounds 1, 2, and 3, each as the NHS ester, and DyLight 649-NHS were conjugated to goat anti-mouse (GAM) and goat anti-rabbit (GAR) antibodies. GAM and GAR, at a concentration of 10 mg/ml in phosphate buffered saline (PBS), were dialyzed against 50 mM borate buffer, pH 8.5. The compounds were reconstituted in dimethylformamide (DMF) at 10 mg/ml. To label the antibodies, the compounds were added at 2.5× molar excess and 5× molar excess for 2 h at room temperature. Streptavidin (SA) was reconstituted in PBS buffer, pH 7.2, and 50 mM borate buffer, pH 8.5, and labeled with 2.5× molar excess and 4× molar excess of the compound.
The antibody-labeled compounds, also termed dyes or labels, were subjected to gel filtration chromatography (15 cm×0.8 cm columns) or to the PDDR to remove the unlabeled (free) compound; 100 μl of the packed resin was used per mg of protein purified. The purified antibody-labeled dyes were then diluted 1:100 in PBS and scanned for absorbance from 700 nm to 230 nm to determine the protein concentration, and to determine the mole dye to mole protein ratio. Each conjugate was diluted 1:10 in 50% glycerol and heated in the presence of 10 mM dithiothreitol (DTT) for 5 min at 95° C., then separated by electrophoresis on polyacrylamide gels in the presence of sodium dodecyl sulfate (SDS-PAGE). The gels were scanned using the Typhoon 9400 Imager to verify removal of the unconjugated compound. Labeling efficiency was compared using labeling of the compounds to GAM antibody at a 2.5× molar excess of compound, with results shown below.
Labeling efficiency was also compared using labeling of the dyes to streptavidin (SA) at either a 2.5 fold or a 4 fold molar excess of the dye, with SA in PBS, pH 7.2, and borate buffer, pH 8.5.
650 Compound 1 (isomer 2)-TFP, 650 Compound 1 (isomer 1)-TFP, 650 Compound 1 (isomer 2)-TFP, 650 Compound 1-NHS, and DyLight 649-NHS were conjugated to GAM, GAR, and SA. GAM and GAR, at a concentration of 10 mg/ml in phosphate buffered saline (PBS), were dialyzed against 50 mM borate buffer, pH 8.5. The compounds were reconstituted in dimethylformamide (DMF) at 10 mg/ml and used to label antibodies at 5× molar excess of compound for two hours at room temperature to label the antibodies. SA was reconstituted in 50 mM borate buffer, pH 8.5, and combined with 4× molar excess to label the SA.
The antibody-conjugated and SA-conjugated compounds, also termed dyes or labels, were subjected to the PDDR to remove the unlabeled (free) compound. The purified antibodies and SA were then diluted 1:25 in PBS and scanned for absorbance from 700 nm to 230 nm to determine the protein concentration, and to determine the mole dye to mole protein ratio. […]

U2OS cells; A550 cells = assay: Immunofluorescence cell based assays, summary statements; parameters: species or system human; details: GAM and GAR conjugates
Experimental: The inventive compounds and commercial dye were evaluated for immunofluorescence in cell based assays using the following protocol. Plates containing U2OS cells (human osteosarcoma cell line) were fixed in 4% paraformaldehyde in PBS/0.1% Triton X-100 for 15 min at room temperature. The cells were then permeabilized with 2% BSA in PBS/0.1% Triton X-100 for 30 min at room temperature. Diluted primary antibodies in PBS/0.1% Triton X-100 were added to the plates and incubated overnight at 4° C. The plates were washed 3×100 μl with PBS. Based on the calculated protein concentrations, the conjugates were diluted to 4 μg/ml (1:250 from 1 mg/ml stock) in PBS/0.1% Triton X-100 and added to the plates (50 μl/well) and incubated 1 h in the dark at room temperature. The plates were washed 3×100 μl with PBS. One hundred μl of 2 μg/ml Hoechst dye in PBS was added per well. The plates were then scanned on an ArrayScan® Plate Reader for imaging and quantitation.
The inventive compounds and commercial dyes were evaluated for immunofluorescence in cell based assays using the following protocol. Plates containing A550 cells (adenocarcinoma human alveolar basal epithelial cells, P5, Sep. 23, 2010) and stored at −80° C. were placed at 50° C. for 30 min. The storage buffer (PBS) was removed and then the cells were permeabilized for 15 min (100 μl/well) with 0.1% Triton-X100 in 1×PBS buffer. The plates were blocked for 30 min in 2% BSA in 1×PBS-0.1% Triton-X100 and then incubated with primary antibodies diluted in 2% BSA in 1×PBS, 0.1% Trion-X100, overnight at 4° C. […] The remaining wells were incubated in blocking buffer only (no primary antibody). After overnight incubation, the antibody solution was removed from the wells, and the plates were washed with PBS-Tween (2×100 μl/well). The labeled secondary antibody conjugates, diluted to 4 μg/ml in PBS were added to corresponding wells and incubated for 1 h at room temperature (about 20° C. to about 22° C.). The plates were washed 3×100 μl/well with PBS and Hoechst stain diluted 1 μg/ml in PBS were added to each well (100 μl/well) of each plate. The plates were then scanned on the Thermo Scientific ArrayScan® HCS Reader for imaging and quantitation.

[2] = Spectral properties of the dyes compared with commercially available dyes; format: physicochemical; details: reactive ester form of the dye
[3] = unit size 1 mg, 50° C. for seven days, purity based on ester activity
[4] = amount 1 mg, 50° C. for 14 days (650 series)

Chain of streptavidin (SA) (P22629 25-183, species assumed): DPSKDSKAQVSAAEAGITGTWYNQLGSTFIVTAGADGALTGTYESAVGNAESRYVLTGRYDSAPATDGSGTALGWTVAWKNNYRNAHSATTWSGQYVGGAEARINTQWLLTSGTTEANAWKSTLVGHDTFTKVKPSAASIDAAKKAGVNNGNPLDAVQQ

COCCN1/C(=C/C=C/C2=[N+](CCCCCC(=O)Oc3c(F)c(F)cc(F)c3F)c3ccc(S(=O)(=O)[O-])cc3C2(C)CCCS(=O)(=O)O)C(C)(CCCS(=O)(=O)O)c2cc(S(=O)(=O)O)ccc21 (single isomer, unassigned) [550 Compound 1 (isomer 1)-TFP]
Purity at day 1 [1, 3]: 97% | Purity at day 7 [1, 3]: 96%

COCCN1/C(=C/C=C/C2=[N+](CCCCCC(=O)NCCN3C(=O)C=CC3=O)c3ccc(S(=O)(=O)[O-])cc3C2(C)CCCS(=O)(=O)O)C(C)(CCCS(=O)(=O)O)c2cc(S(=O)(=O)O)ccc21 (single isomer, unassigned) [550 Compound 1(isomer 1)-maleimide]
Purity at day 1 [1, 3]: 99% | Purity at day 7 [1, 3]: 97%

Alexa 647-SA-(2.5X): Alexa 647 conjugated to streptavidin (SA) [reference compound]
Compound/Protein SA in PBS purified by PDRR (streptavidin (SA)): 3.5 | Compound/Protein SA in PBS purified by gel filtration (streptavidin (SA)): 3.9 | Compound/Protein SA in borate purified by gel PDRR (streptavidin (SA)): 2.4 | Compound/Protein SA in borate purified by gel filtration (streptavidin (SA)): 2.6 | Compound/Protein SA in borate purified by gel PDRR (streptavidin (SA); listed as Alexa647-SA-4X): 3.4 | Compound/Protein SA in borate purified by gel filtration (streptavidin (SA); listed as Alexa647-SA-4X): 3.9

COCCN1/C(=C/C=C/C2=[N+](CCCCCC(=O)NCCN3C(=O)C=CC3=O)c3ccc(S(=O)(=O)[O-])cc3C2(C)CCCS(=O)(=O)O)C(C)(CCCS(=O)(=O)O)c2cc(S(=O)(=O)O)ccc21 (single isomer, unassigned) [550 Compound 1(isomer 2)-maleimide]
Purity at day 1 [1, 3]: 98% | Purity at day 7 [1, 3]: 97%

COCCN1/C(=C/C=C/C2=[N+](CCCCCC(=O)O)c3ccc(S(=O)(=O)[O-])cc3C2(C)CCCS(=O)(=O)O)C(C)(CCCS(=O)(=O)O)c2cc(S(=O)(=O)O)ccc21 (stereo not shown) [550 Compound 1, 2-{(E)-3-[1-(5-carboxypentyl)-3-methyl-5-sulfo-3-(3-sulfopropyl)-1,3-dihydro-indol-(2E)-ylidene]-propenyl}-1-(2-methoxy-ethyl)-3-methyl-5-sulfo-3-(3-sulfo-propyl)-3H-indolium]
Immunofluorescence performance of conjugates compared with commercial DyLight dye (U2OS cells; A550 cells): at least similar performance to DyLight 549 conjugates (GAM, GAR), and in some cases superior performance

Cy5-SA (2.5X): Cy5 conjugated to streptavidin (SA) [reference compound]
Compound/Protein SA in PBS purified by PDRR (streptavidin (SA)): 3.8 | Compound/Protein SA in PBS purified by gel filtration (streptavidin (SA)): 4.2 | Compound/Protein SA in borate purified by gel PDRR (streptavidin (SA)): 2.0 | Compound/Protein SA in borate purified by gel filtration (streptavidin (SA)): 2.3 | Compound/Protein SA in borate purified by gel PDRR (streptavidin (SA); listed as Cy5-SA-4X): 3.3 | Compound/Protein SA in borate purified by gel filtration (streptavidin (SA); listed as Cy5-SA-4X): 3.8

COCCN1/C(=C/C=C/C=C/C2=[N+](CCCCCC(=O)Oc3c(F)c(F)cc(F)c3F)c3ccc(S(=O)(=O)[O-])cc3C2(C)CCCS(=O)(=O)O)C(C)(CCCS(=O)(=O)O)c2cc(S(=O)(=O)O)ccc21 (single isomer, unassigned) [650 Compound 1 (isomer 2)-TFP]
SA (4X) Average (mole dye to mole protein ratio) (streptavidin (SA); TFP or NHS ester, 4X molar excess, borate buffer pH 8.5, PDRR): 2.42

COCCN1/C(=C/C=C/C=C/C2=[N+](CCCCCC(=O)Oc3c(F)c(F)cc(F)c3F)c3ccc(S(=O)(=O)[O-])cc3C2(C)CCCS(=O)(=O)O)C(C)(CCCS(=O)(=O)O)c2cc(S(=O)(=O)O)ccc21 (stereo not shown) [650 Compound 1-TFP]
Emission (Em) [2]: 672 nm | Excitation (Ex) [2]: 654 nm | ε [2]: 250,000 M−1cm−1 | Purity at day 1 [1, 4]: 98% | Purity at day 14 [1, 4]: 97%

DyLight 649-SA (2.5X): DyLight 649 conjugated to streptavidin (SA); suffix gives molar excess of dye [reference compound]
Compound/Protein SA in PBS purified by PDRR (streptavidin (SA)): 2.6 | Compound/Protein SA in PBS purified by gel filtration (streptavidin (SA)): 3.5 | Compound/Protein SA in borate purified by gel PDRR (streptavidin (SA)): 2.2 | Compound/Protein SA in borate purified by gel filtration (streptavidin (SA)): 2.3 | Compound/Protein SA in borate purified by gel PDRR (streptavidin (SA); listed as DyLight 649-SA-4X): 2.9 | Compound/Protein SA in borate purified by gel filtration (streptavidin (SA); listed as DyLight 649-SA-4X): 3.5
